Laboratory results taken from patent US20240279315A1 (priority 2023, published 2024).

Each substance was assayed against hemagglutinin (HA) of influenza B/Phuket/3073/2013 B-Yam (influenza B virus B/Phuket/3073/2013) (assay: cell-based or functional assay).

Q: SAB-176 Lot 2 (PD2001010QR) (antibody) was tested. Which HAI titer did it give?
A: 160 titer

Q: Which HAI titer does the source give for SAB-176 Lot 4 (PD2102092QR) (antibody) here?
A: 160 titer

What follows are substances tested against hemagglutinin (HA) of influenza A/Kansas/14/2017 H3N2 (influenza A virus A/Kansas/14/2017 (H3N2)) (assay: cell-based or functional assay).

Q: Which HAI titer does the source give for SAB-176 Lot 2 (PD2001010QR) (antibody) here?
A: 40 titer

Q: SAB-176 Lot 4 (PD2102092QR) (antibody) was tested. Which HAI titer did it give?
A: 320 titer

The substances below were run against hemagglutinin (HA) of influenza B/Colorado/06/2017 B-Vic (influenza B virus B/Colorado/06/2017) (assay: cell-based or functional assay).

Q: With SAB-176 Lot 2 (PD2001010QR) (antibody) as the substance, how does the HAI titer read?
A: 320 titer

Q: With SAB-176 Lot 4 (PD2102092QR) (antibody) as the substance, how does the HAI titer read?
A: 160 titer

What follows are substances tested against hemagglutinin (HA) of influenza A/Tasmania/503/2020 (H3N2) (influenza A virus A/Tasmania/503/2020 (H3N2)) (assay: cell-based or functional assay).

Q: With SAB-176 Lot 2 (PD2001010QR) (antibody) as the substance, how does the HAI titer read?
A: 160 titer

Q: Which HAI titer does the source give for SAB-176 Lot 4 (PD2102092QR) (antibody) here?
A: 320 titer

The substances below were run against hemagglutinin (HA) of influenza A/Wisconsin/588/2019 (influenza A virus A/Wisconsin/588/2019) (assay: cell-based or functional assay).

Q: For SAB-176 Lot 2 (PD2001010QR) (antibody), which HAI titer is on record?
A: 640 titer

Q: For SAB-176 Lot 4 (PD2102092QR) (antibody), which HAI titer is on record?
A: 640 titer

These substances were tested against hemagglutinin (HA) of influenza A/Sydney/5/2021 (influenza A virus A/Sydney/5/2021) (assay: cell-based or functional assay).

Q: With SAB-176 Lot 2 (PD2001010QR) (antibody) as the substance, how does the HAI titer read?
A: 320 titer

Q: How did the HAI titer turn out when SAB-176 Lot 4 (PD2102092QR) (antibody) was run?
A: 320 titer

These substances were tested against hemagglutinin (HA) of influenza A/Singapore/INFIMH-16-0019/2016 H3N2 (influenza A virus A/Singapore/INFIMH-16-0019/2016 (H3N2)) (assay: cell-based or functional assay).

Q: Which HAI titer does the source give for SAB-176 Lot 2 (PD2001010QR) (antibody) here?
A: 320 titer

Q: How did the HAI titer turn out when SAB-176 Lot 4 (PD2102092QR) (antibody) was run?
A: 640 titer

These substances were tested against hemagglutinin (HA) of influenza B/Austria/1359417/2021 (influenza B virus B/Austria/1359417/2021) (assay: cell-based or functional assay).

Q: How did the HAI titer turn out when SAB-176 Lot 2 (PD2001010QR) (antibody) was run?
A: 28 titer

Q: For SAB-176 Lot 4 (PD2102092QR) (antibody), which HAI titer is on record?
A: 40 titer

Each substance was assayed against hemagglutinin (HA) of influenza B/Washington/02/2019 B-Vic (influenza B virus B/Washington/02/2019) (assay: cell-based or functional assay).

Q: How did the HAI titer turn out when SAB-176 Lot 2 (PD2001010QR) (antibody) was run?
A: 160 titer

Q: For SAB-176 Lot 4 (PD2102092QR) (antibody), which HAI titer is on record?
A: 160 titer

These substances were tested against hemagglutinin (HA) of influenza A/Brisbane/02/2018 H1N1 (influenza A virus A/Brisbane/02/2018 (H1N1)) (assay: cell-based or functional assay).

Q: With SAB-176 Lot 2 (PD2001010QR) (antibody) as the substance, how does the HAI titer read?
A: 1280 titer

Q: With SAB-176 Lot 4 (PD2102092QR) (antibody) as the substance, how does the HAI titer read?
A: 1280 titer

What follows are substances tested against hemagglutinin (HA) of influenza A/Hawaii/70/2019 (influenza A virus A/Hawaii/70/2019) (assay: cell-based or functional assay).

Q: SAB-176 Lot 2 (PD2001010QR) (antibody) was tested. Which HAI titer did it give?
A: 640 titer

Q: How did the HAI titer turn out when SAB-176 Lot 4 (PD2102092QR) (antibody) was run?
A: 905 titer

What follows are substances tested against hemagglutinin (HA) of influenza A/Darwin/6/2021 (influenza A virus A/Darwin/6/2021) (assay: cell-based or functional assay).

Q: With SAB-176 Lot 2 (PD2001010QR) (antibody) as the substance, how does the HAI titer read?
A: 113 titer

Q: Which HAI titer does the source give for SAB-176 Lot 4 (PD2102092QR) (antibody) here?
A: 160 titer

Each substance was assayed against hemagglutinin (HA) of influenza A/Cambodia/e0826360/2020 H3N2 (influenza A virus A/Cambodia/e0826360/2020 (H3N2)) (assay: cell-based or functional assay).

Q: SAB-176 Lot 4 (PD2102092QR) (antibody) was tested. Which HAI titer ratio of SAB-176 to hIVIG did it give?
A: 32 X

What follows are substances tested against hemagglutinin (HA) of influenza A/Hong Kong/45/2019 H3N2 (influenza A virus A/Hong Kong/45/2019 (H3N2)) (assay: cell-based or functional assay).

Q: What does the source list for SAB-176 Lot 4 (PD2102092QR) (antibody)?
A: HAI titer: 256 titer; HAI titer ratio of SAB-176 to hIVIG: 16 to 32 X

These substances were tested against hemagglutinin (HA) of influenza A/Victoria/2570/2019 H1N1 (influenza A virus A/Victoria/2570/2019 (H1N1)) (assay: cell-based or functional assay).

Q: With SAB-176 Lot 4 (PD2102092QR) (antibody) as the substance, how does the HAI titer ratio of SAB-176 to hIVIG read?
A: 16 to 32 X

Target: hemagglutinin (HA) of influenza B/Phuket/3073/2013 B-Yam (influenza B virus B/Phuket/3073/2013)
Assay: cell-based or functional assay
Remark: another data set of the same source

Q: Which results are given for SAB-176 Lot 2 (PD2001010QR) (antibody)?
A: HAI titer: 256 titer; HAI titer of drug product: 3580 titer; HAI titer ratio of SAB-176 to hIVIG: 32 X

Q: For SAB-176 Lot 4 (PD2102092QR) (antibody), which HAI titer is on record?
A: 128 titer

Q: And the HAI titer of drug product?
A: 3840 titer

Q: And the HAI titer ratio of SAB-176 to hIVIG?
A: 16 X

Target: hemagglutinin (HA) of influenza A/Kansas/14/2017 H3N2 (influenza A virus A/Kansas/14/2017 (H3N2))
Assay: cell-based or functional assay
Remark: another data set of the same source

Q: Which HAI titer does the source give for SAB-176 Lot 2 (PD2001010QR) (antibody) here?
A: 64 titer

Q: And the HAI titer ratio of SAB-176 to hIVIG?
A: 2 to 16 X

Q: Which results are given for SAB-176 Lot 4 (PD2102092QR) (antibody)?
A: HAI titer: 256 titer; HAI titer ratio of SAB-176 to hIVIG: 8 to 64 X

Target: hemagglutinin (HA) of influenza A/Cambodia/e0826360/2020 H3N2 (influenza A virus A/Cambodia/e0826360/2020 (H3N2))
Assay: cell-based or functional assay
Remark: another data set of the same source

Q: With SAB-176 Lot 2 (PD2001010QR) (antibody) as the substance, how does the HAI titer read?
A: 256 titer

Q: And the HAI titer ratio of SAB-176 to hIVIG?
A: 8 to 16 X

Q: With SAB-176 Lot 4 (PD2102092QR) (antibody) as the substance, how does the HAI titer read?
A: 256 titer

Q: What about the HAI titer ratio of SAB-176 to hIVIG of the same substance?
A: 8 to 16 X

Target: hemagglutinin (HA) of influenza B/Colorado/06/2017 B-Vic (influenza B virus B/Colorado/06/2017)
Assay: cell-based or functional assay
Remark: another data set of the same source

Q: How did the HAI titer turn out when SAB-176 Lot 2 (PD2001010QR) (antibody) was run?
A: 256 titer

Q: What about the HAI titer ratio of SAB-176 to hIVIG of the same substance?
A: 16 to 32 X

Q: Which HAI titer does the source give for SAB-176 Lot 4 (PD2102092QR) (antibody) here?
A: 256 titer

Q: What about the HAI titer ratio of SAB-176 to hIVIG of the same substance?
A: 16 to 32 X

These substances were tested against hemagglutinin (HA) of influenza B/Maryland/15/2016 B-Vic (influenza B virus B/Maryland/15/2016) (assay: cell-based or functional assay).

Q: How did the HAI titer turn out when SAB-176 Lot 2 (PD2001010QR) (antibody) was run?
A: 256 titer

Q: And the HAI titer of drug product?
A: 3580 titer

Q: What about the HAI titer ratio of SAB-176 to hIVIG of the same substance?
A: 16 to 32 X

Q: Which results are given for SAB-176 Lot 4 (PD2102092QR) (antibody)?
A: HAI titer: 256 titer; HAI titer ratio of SAB-176 to hIVIG: 16 to 32 X

Target: hemagglutinin (HA) of influenza A/Singapore/INFIMH-16-0019/2016 H3N2 (influenza A virus A/Singapore/INFIMH-16-0019/2016 (H3N2))
Assay: cell-based or functional assay
Remark: another data set of the same source

Q: Which HAI titer does the source give for SAB-176 Lot 2 (PD2001010QR) (antibody) here?
A: 512 titer

Q: And the HAI titer of drug product?
A: 7170 titer

Q: What about the HAI titer ratio of SAB-176 to hIVIG of the same substance?
A: 8 to 32 X

Q: For SAB-176 Lot 4 (PD2102092QR) (antibody), which HAI titer is on record?
A: 512 titer

Q: What about the HAI titer ratio of SAB-176 to hIVIG of the same substance?
A: 8 to 32 X

Target: hemagglutinin (HA) of influenza A/Hong Kong/45/2019 H3N2 (influenza A virus A/Hong Kong/45/2019 (H3N2))
Assay: cell-based or functional assay
Remark: another data set of the same source

Q: With SAB-176 Lot 4 (PD2102092QR) (antibody) as the substance, how does the HAI titer of drug product read?
A: 1920 titer

Target: hemagglutinin (HA) of influenza A/Victoria/2570/2019 H1N1 (influenza A virus A/Victoria/2570/2019 (H1N1))
Assay: cell-based or functional assay
Remark: another data set of the same source

Q: SAB-176 Lot 2 (PD2001010QR) (antibody) was tested. Which HAI titer did it give?
A: 256 titer

Q: What about the HAI titer ratio of SAB-176 to hIVIG of the same substance?
A: 16 to 32 X

Q: With SAB-176 Lot 4 (PD2102092QR) (antibody) as the substance, how does the HAI titer read?
A: 256 titer

Target: hemagglutinin (HA) of influenza B/Washington/02/2019 B-Vic (influenza B virus B/Washington/02/2019)
Assay: cell-based or functional assay
Remark: another data set of the same source

Q: How did the HAI titer turn out when SAB-176 Lot 2 (PD2001010QR) (antibody) was run?
A: 128 titer

Q: And the HAI titer ratio of SAB-176 to hIVIG?
A: 16 to 32 X

Q: With SAB-176 Lot 4 (PD2102092QR) (antibody) as the substance, how does the HAI titer read?
A: 128 titer

Q: And the HAI titer of drug product?
A: 960 titer

Q: What about the HAI titer ratio of SAB-176 to hIVIG of the same substance?
A: 16 to 32 X

Target: hemagglutinin (HA) of influenza A/Brisbane/02/2018 H1N1 (influenza A virus A/Brisbane/02/2018 (H1N1))
Assay: cell-based or functional assay
Remark: another data set of the same source

Q: For SAB-176 Lot 2 (PD2001010QR) (antibody), which HAI titer is on record?
A: 512 titer

Q: What about the HAI titer ratio of SAB-176 to hIVIG of the same substance?
A: 16 to 32 X

Q: SAB-176 Lot 4 (PD2102092QR) (antibody) was tested. Which HAI titer did it give?
A: 512 titer

Q: What about the HAI titer ratio of SAB-176 to hIVIG of the same substance?
A: 16 to 32 X

What follows are substances tested against hemagglutinin (HA) of influenza B/California/12/2015 B-Yam (influenza B virus B/California/12/2015) (assay: cell-based or functional assay).

Q: What does the source list for SAB-176 Lot 2 (PD2001010QR) (antibody)?
A: HAI titer: 128 titer; HAI titer ratio of SAB-176 to hIVIG: 16 to 32 X

Q: With SAB-176 Lot 4 (PD2102092QR) (antibody) as the substance, how does the HAI titer read?
A: 128 titer

Q: What about the HAI titer ratio of SAB-176 to hIVIG of the same substance?
A: 16 to 32 X
